Data set [1] has as its system Zur (zinc uptake regulator) (Streptomyces coelicolor A3(2) M145?). Briefly: EMSA. The conditions noted are these: 5 uM ZnSO4; 20 mM Tris-HCl pH 7.8, 50 mM KCl, 1 mM DTT, 0.1 mg/ml BSA, 5% glycerol, 0.1 ug poly(dI-dC) per 20 ul, 0-20 uM ZnSO4, room temperature 20 min; gel 5% PAGE in TB …. Background: In EMSA bound probe runs differently from free probe, usually more slowly.

The target of data set [2] is Zur (zinc uptake regulator) of Streptomyces coelicolor (Streptomyces coelicolor). Briefly: native gel or EMSA; EMSA of purified Zur (0-90 nM) on 32P-labelled znuA and zitB DNA probes (25, 33, 46, 114 bp) with 0-20 uM ZnSO4; 20 mM Tris-HCl pH 7.8, 50 mM KCl, 1 mM DTT, room temperature; the number of Zur chains in each shifted band was estimated from mobility on native PAGE at different acrylamide percentages; Zur oligomers seen only on DNA.

Turning to “GCACATGACAACGGTGTTCAGTGCC (double strand) [zitB 25 bp Zur-box probe (-63 to -39)]”, the Kd (usually a measure of binding affinity in units of concentration) in data set [1] was found to be 19.3 nM.

Regarding “Zur (zinc uptake regulator) of Streptomyces coelicolor (natural protein)”, in data set [2], the stoichiometry N (usually the number of molecules, sites or subunits per partner or assembly) is 2.

(Values after publication PMC5472717.)
